# B1: PLAGL1 (parent)
# chain: LELGSTEVLLDHLKAHAEEKPPSG
# B2: TFE3 (parent)
# chain: FPSDHLGDLGDPFHLGLEDILMEE
# Variants of: B1
# Assay: protein stability index of a GFP-peptide fusion (GPS, HEK-293T) (PSI 1-6); higher = more stable
# Settings: c terminus: a fixed tail appended
# 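Note: lentivirally expressed fusions sorted by FACS into six bins by GFP to DsRed ratio, PSI derived from sequencing read proportions per bin multiplied by bin number.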
row,Variant,protein stability index
1,LELESTEVLLDHLKAHAEEKPPSG,3.85
2,LELLSTEVLLDHLKAHAEEKPPSG,2.77
3,LELPSTEVLLDHLKAHAEEKPPSG,4.77
4,LELMSTEVLLDHLKAHAEEKPPSG,2.25
5,LELQSTEVLLDHLKAHAEEKPPSG,3.68
6,LELKSTEVLLDHLKAHAEEKPPSG,4.3
7,LELISTEVLLDHLKAHAEEKPPSG,2.58
8,LELNSTEVLLDHLKAHAEEKPPSG,4.54
9,LELASTEVLLDHLKAHAEEKPPSG,2.89
10,LELSSTEVLLDHLKAHAEEKPPSG,4.14
11,LELFSTEVLLDHLKAHAEEKPPSG,2.59
12,LELDSTEVLLDHLKAHAEEKPPSG,5.28
13,LELHSTEVLLDHLKAHAEEKPPSG,3.83
14,LELRSTEVLLDHLKAHAEEKPPSG,3.94
15,LELCSTEVLLDHLKAHAEEKPPSG,3.54
16,VELGSTEVLLDHLKAHAEEKPPSG,4.91
17,NELGSTEVLLDHLKAHAEEKPPSG,5.35
18,FELGSTEVLLDHLKAHAEEKPPSG,4.48
19,TELGSTEVLLDHLKAHAEEKPPSG,4.91
20,DELGSTEVLLDHLKAHAEEKPPSG,5.24
21,QELGSTEVLLDHLKAHAEEKPPSG,4.99
22,WELGSTEVLLDHLKAHAEEKPPSG,4.28
23,MELGSTEVLLDHLKAHAEEKPPSG,4.59
24,KELGSTEVLLDHLKAHAEEKPPSG,5.53

row,Variant,protein stability index
1,AELGSTEVLLDHLKAHAEEKPPSG,5.43
2,HELGSTEVLLDHLKAHAEEKPPSG,5.36
3,RELGSTEVLLDHLKAHAEEKPPSG,5.29
4,PELGSTEVLLDHLKAHAEEKPPSG,5.23
5,SELGSTEVLLDHLKAHAEEKPPSG,4.98
6,GELGSTEVLLDHLKAHAEEKPPSG,4.44
7,CELGSTEVLLDHLKAHAEEKPPSG,4.61
8,IELGSTEVLLDHLKAHAEEKPPSG,3.55
9,YELGSTEVLLDHLKAHAEEKPPSG,4.38
10,EELGSTEVLLDHLKAHAEEKPPSG,5.02
11,LEWGSTEVLLDHLKAHAEEKPPSG,4.49
12,LEVGSTEVLLDHLKAHAEEKPPSG,4.9
13,LERGSTEVLLDHLKAHAEEKPPSG,5.54
14,LEYGSTEVLLDHLKAHAEEKPPSG,5.45
15,LEEGSTEVLLDHLKAHAEEKPPSG,5.8
16,LEDGSTEVLLDHLKAHAEEKPPSG,5.79
17,LEMGSTEVLLDHLKAHAEEKPPSG,4.09
18,LECGSTEVLLDHLKAHAEEKPPSG,5.21
19,LENGSTEVLLDHLKAHAEEKPPSG,5.67
20,LEPGSTEVLLDHLKAHAEEKPPSG,5.88
21,LEKGSTEVLLDHLKAHAEEKPPSG,5.19
22,LEFGSTEVLLDHLKAHAEEKPPSG,4.33
23,LETGSTEVLLDHLKAHAEEKPPSG,5.18
24,LEGGSTEVLLDHLKAHAEEKPPSG,5.74

row,Variant,protein stability index
1,LEAGSTEVLLDHLKAHAEEKPPSG,5.17
2,LEQGSTEVLLDHLKAHAEEKPPSG,5.55
3,LEHGSTEVLLDHLKAHAEEKPPSG,5.4
4,LESGSTEVLLDHLKAHAEEKPPSG,5.72
5,LEIGSTEVLLDHLKAHAEEKPPSG,4.74
6,LYLGSTEVLLDHLKAHAEEKPPSG,2.34
7,LMLGSTEVLLDHLKAHAEEKPPSG,2.81
8,LQLGSTEVLLDHLKAHAEEKPPSG,4.19
9,LGLGSTEVLLDHLKAHAEEKPPSG,4.81
10,LALGSTEVLLDHLKAHAEEKPPSG,3.53
11,LHLGSTEVLLDHLKAHAEEKPPSG,4.03
12,LVLGSTEVLLDHLKAHAEEKPPSG,2.49
13,LSLGSTEVLLDHLKAHAEEKPPSG,3.37
14,LPLGSTEVLLDHLKAHAEEKPPSG,4.67
15,LTLGSTEVLLDHLKAHAEEKPPSG,4.16
16,LILGSTEVLLDHLKAHAEEKPPSG,3.18
17,LDLGSTEVLLDHLKAHAEEKPPSG,4.03
18,LLLGSTEVLLDHLKAHAEEKPPSG,2.27
19,LRLGSTEVLLDHLKAHAEEKPPSG,3.4
20,LCLGSTEVLLDHLKAHAEEKPPSG,3.84
21,LNLGSTEVLLDHLKAHAEEKPPSG,4.69
22,LWLGSTEVLLDHLKAHAEEKPPSG,2
23,LKLGSTEVLLDHLKAHAEEKPPSG,4.23
24,LFLGSTEVLLDHLKAHAEEKPPSG,2.15

# Variants of: B2
# Assay: as above
# Settings: c terminus: a fixed tail appended
row,Variant,protein stability index
1,FPSDHLGDLGDPFHLGLEGILMEE,3.46
2,FPSDHLGDLGDPFHLGLEAILMEE,2.1
3,FPSDHLGDLGDPFHLGLEFILMEE,2.09
4,FPSDHLGDLGDPFHLGLETILMEE,2.58
5,FPSDHLGDLGDPFHLGLENILMEE,3.06
6,FPSDHLGDLGDPFHLGLECILMEE,2.91
7,FPSDHLGDLGDPFHLGLEEILMEE,3.2
8,FPSDHLGDLGDPFHLGLESILMEE,2.69
9,FPSDHLGDLGDPFHLGLEHILMEE,3.29
10,FPSDHLGDLGDPFHLGLEMILMEE,2.28
11,FPSDHLGDLGDPFHLGLEPILMEE,3.31
12,FPSDHLGDLGDPFHLGLEIILMEE,2.92
13,FPSDHLGDLGDPFHLGLEYILMEE,1.91
14,FPSDHLGDLGDPFHLGLELILMEE,2.03
15,FPSDHLGDLGDPFHLGLERILMEE,2.77
16,FPSDHLGDLGDPFHLGLEWILMEE,2.16
17,FPSDHLGDLGDPFHLGLEVILMEE,1.97
18,FPSDHLGDLGDPFHLGLEKILMEE,3.29
19,FPSDHLGDLGDPFHLGLEQILMEE,2.83
20,FPSDHLGDLGDPFHLGLEDILAEE,3.31
21,FPSDHLGDLGDPFHLGLEDILWEE,3.16
22,FPSDHLGDLGDPFHLGLEDILEEE,4.79
